Data on 41 sequences can be found in the nanobody polyreactivity screen of Harvey et al. (2022).

A short description of this series: yeast display, Sf9 membrane polyspecificity reagent, FACS + sequencing; frameworks hold sequencing errors. The procedure, abridged: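 Galactose induction of a Saccharomyces cerevisiae BJ5465 synthetic nanobody display library ran 36–48 hours. The cells were then stained for 1 hour at 4 °C with 10% biotinylated, detergent-solubilized Sf9 membrane reagent, pulled down on streptavidin microbeads and FACS-sorted into low and high (top ~1%) gates on expression and reagent-binding fluorescence. Labels for polyreactivity follow the gate of origin.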
For “QVQLVESGGGLVQAGGSLRLSCAASGSIFLVNAMGWYRQAPGERKELVAAISWSSGSTYYADSVKGRFTISRDNAKNTVYLQMNSLKPEDTAVYYCAKRSSITYRYDYWGQGTQVTVSS”, the “polyreactivity (PSR sort gate)” value is given as “high polyreactivity”.

For “QYQLVESGGGLVQAGRTLRLSWAASGRIFVRYVMGCYRQAPVKERELVAAISSSGGSTYYADSVKGRFTISRDNAKNWVYLQIYSLKPEDTAVYYCATDFMDKYILPYDYWGQGTQVTVSS”, the “polyreactivity (PSR sort gate)” value is recorded as “low polyreactivity”.

For “QVHLVESGGGLVQAGGSLRLSCAASGSTFRLYALGWYRQAPGKERELVAVISRSGGRTYADSVKGRFTISRDNAKNTVYLQMNSLKPVDTAVYYCAKARHKSPTYTHDSWGQGTQVTVSS”, the “polyreactivity (PSR sort gate)” value is on record as “high polyreactivity”.

Consider “QVQLVESGGGLVQAGGSLRLSCAASGFTFTYYALGWYRQAPGKERQLVAAISSRGGRTYYADSVKVRFRISRDNAKNTVYLLMKSLKPEDTAVYYCAARVYKGWPTHYDYLGQGTQVTVSS”, for which the “polyreactivity (PSR sort gate)” value is reported as “high polyreactivity”.

As to “QVQLVESGGGLVQAGGSLRLRCAASGRTFRRNAMGWYRQAPGKERELVAGISWGGGSTYYADSVKGRFTISRDNAKNTVYLQMNSLKPEDTAVYYCAASGYFYRAYGYWGQGTQVTVSS”, the “polyreactivity (PSR sort gate)” value is “high polyreactivity”.

Take “QVQLVESGGGLVQAGGSLRLSCAASGSTFDRYGMGWYRQAPGKERELVARITSSGASTYYADSVKGRFTISRDNAMNTVYLQMNSQKPEDTAVYYCAADEGYPGDGDYWGQGTQVTVSS”: the “polyreactivity (PSR sort gate)” value is recorded as “low polyreactivity”.

With “QVQIVESGRGLVQAGGSLRLSCAPSGFTLGFFAMGWYRQAPGKERELVAAINWRGGSTYYADSVKVRFTISRDNAKNTVYLQMNSLKPEDTAVYYCNRVYRPSRYDYWGQGTQVTVSS”, the “polyreactivity (PSR sort gate)” value was “high polyreactivity”.

Consider “QVQIGESGGGLVQAGGSLRLSCAASGFIIGTNTMGWYRQAPGKERELVAAITSVGSTNYADSVKGRFTISRDNAKNTVYLQMNSLKPEDTAVYYCPATLYYQYGGDYWGQGTQVTVSS”, for which the “polyreactivity (PSR sort gate)” value is listed as “low polyreactivity”.

For “QVQLVESGGGLVQAGGSLRLSCAASGYIFGVYAMGWYRQAPGKERELVAVISSGDRTNYADSVKGRFTISRDNAKNTVYLQMNSLKPEDTAVYYCAADGRSPSYYGYDHWGQGTQVTVSS”, the “polyreactivity (PSR sort gate)” value is listed as “low polyreactivity”.

As for “QVQLVESGGGLVQAGGSLRLSCAASGFTSRKNAMGWYSQAPGKERELVAAITQSSGRTYYADSVKGRFTISRDNAKNTVYLQMNSLKPEDTAVYYCAARRGGEDDYWGQGTQVTVSS”, the “polyreactivity (PSR sort gate)” value is “low polyreactivity”.

On to “QVQLVESGGGLVLAGGSLRLSCAASGLIFAVYAMGWYRQAPGKERELVAGISASAASTYYADSVKGRFTISRDNAKNTVYLQMNSLKPEDTAVYYCAAGFYRRGKYDYWGQGTQVTVSS”, for which the “polyreactivity (PSR sort gate)” value is “high polyreactivity”.

For “QVQLVESGGGLVQAGGSLRLSCAASGFTFKRNAMGWYRQAPGKERELVASITSRGGSTDYADSVKGRFTISRDNAKNTVYLQMNSLKPEDTAVYYCAAVKYVVYYRSDYWGQGTQVTVSS”, the “polyreactivity (PSR sort gate)” value was “high polyreactivity”.

With “QVQLVESGGGLVQAGGSLRLSCAASGRTINRSAMGWYRQAPGKARELVAAISTSGGTTYYADSVKGRFTISRDNAQNTAYLQMNSLKPEDPADYYCAKRGPVRTQYTYYYWGQGTQVTVSS”, the “polyreactivity (PSR sort gate)” value is reported as “high polyreactivity”.

In the case of “QVQLVESGGGLVQAGGSLRISCAASGRILLRNVMGWYRQAPGKERELVAVITRTGITYYAYSVKGRFTISRDNAKNTVYLQMNSLKPEDTAVYYCAAGLPKYEHDYWGQGTQVTVSS”, the “polyreactivity (PSR sort gate)” value is on record as “low polyreactivity”.

As to “QVQLVESGGGLVQAGGSLRLSCAASGRIYTYYTMGWYRQAPGKERELVAAITVRGGRTYYADSVKGRFTISRDNAKNTDYLQMNSLKPEDTAVYYCAARGLVRSYDYWGQVTQVTVSS”, the “polyreactivity (PSR sort gate)” value is on record as “high polyreactivity”.

Turning to “QVQLVESAGGLVQAGGSLRLSCAASGRIFGQYTMGWYRQAPGKERELDAAISSSGGRTYYADSVKGRFTISRDNAKNTVYLQMNSLKPEDTAVYYCAARDRPSPYYYWGQGTQVTVSS”, the “polyreactivity (PSR sort gate)” value is “high polyreactivity”.

For “QVQLVESGVGLVQAGGSLRLICDASGRIYSYYAIGWYRQAPGKETELVASISRSGGSTYYADSVKGRFTISRDNAKNTVYLQMNSLKPEETAVYYCAAYKYVRSYPYDYWGQGTQVTVSS”, the “polyreactivity (PSR sort gate)” value was “low polyreactivity”.

In the case of “QVQLVESGGGLVQAGGSLRLSCAASGRIFGDYAMGWYRQAPGKEMELVAAITSAGSTHYADSVKGRFTISRDNAKNTVYLQMNILKPDDTAVYYCAADGIARAYVLFDAYDFLYDYWGQGTHVTVSS”, the “polyreactivity (PSR sort gate)” value is recorded as “low polyreactivity”.

In the case of “QVQLVESGGGLVQAGGSLRLSCAACGIIFVYYAMGWYRQAPGKERELVAAISSSGARTYYADSVKGRFTISRDNAKNTVYLQMNSLKPEDTAVYYCAARETRTKPIFYGYNYWGQGTQVTVSS”, the “polyreactivity (PSR sort gate)” value is listed as “high polyreactivity”.

For “QVQLVESGGGLVQAGGSLRLSCAASGFTFPLYAMGWYRQAPGKETELVATISSSGSTYYADSVKGRFTISRDNAKNTVYLQMNSLKPEDTAVYYCIAAIQSYEGSGRYFRFDYWGQGTQVTVSS”, the “polyreactivity (PSR sort gate)” value is on record as “low polyreactivity”.

For “QVQLVESGGGLVQGGGSLRLSCAASGGTIGRNAMGWYRQAPGKERELVANITRRGGSTYYADSVKGRFTISRDNAKNTVYLQMNSLKAEDTAVYYCAARDVYRGGLFDYWGQGTQVSVSS”, the “polyreactivity (PSR sort gate)” value is given as “high polyreactivity”.

“QVQLVESGGGLVQAGGSLRLSCAASGRTFPYNAMGWYRPAPGKERELVAAISGRGGSTYYADYVKGRFTISRDNAKNTVYLQMNSLKPEDTAVYYCAARLPWSYYRTQGYNYWGQGTQVTVSS”: the “polyreactivity (PSR sort gate)” value is “high polyreactivity”.

As for “QDQLVESGGGLVQAGGSLRLSCAASGFIFKWNAMGWYRQAPGKERELVAGITRGGSTYADSVKGRFTISRDNAKNTVYLQMNSLKPEDTAVDYCAAGDYDEYDYWGQGTQVTVSS”, the “polyreactivity (PSR sort gate)” value is given as “high polyreactivity”.

As to “QVQLVESGGGLVQAGGSLRLSCAASGSIFKQNAMGWYRQAPGKERELVASIRASGDRTYYADSVKGRFTISRDNAKNTVYLQMNSLKPEDTAVYYCAARRVRTRGYNYWGQGTQVTVSS”, the “polyreactivity (PSR sort gate)” value is given as “high polyreactivity”.

Turning to “QVQLVESGGGLVQAGGSLRLSCAASGFTFRSYAMGWYRQAPGKERELVASISPGATTKYADSVKGRFTISRDNAKNTVYLQMNSLKPEDTAVYYYEVYQILVRRLSYWGQGTQVTVSC”, the “polyreactivity (PSR sort gate)” value is listed as “high polyreactivity”.

Take “QVQLVESGGGLVQAGGSLRLSCAASGRTFGFYTMGWYRPAPGKERELVAAITSRGGITTYADSVKGRFTISRDNAKNTVYLQLNSLIPEDTAVYYCAASLRAPSLGHYYYWGQGTQVTVSS”: the “polyreactivity (PSR sort gate)” value is “high polyreactivity”.

For “QVQLVESGGGLVQAGGSLRLSCAASGSTFSYNAMGWYRQAPGKERELVATISNTDSTNYADSVKGRFTISRDNAKNTVYLQMNSLKPEVTAVYYCAVVSARIDYEYWGQGTQVTVSS”, the “polyreactivity (PSR sort gate)” value is recorded as “low polyreactivity”.

In the case of “QVQLEDSGGGLVQAGGSLRLSCAASGSIIGSYAMGLYRQAPGKERELVAAISRRGGSTYYADSVKGRFTISRDNAKNTVYLQMNSLKPEDTAVYYCARRDYGVLNKGLGQEGDYWGQGTQVTVSS”, the “polyreactivity (PSR sort gate)” value is recorded as “low polyreactivity”.

With “QVQLVESGGGLVQAGGSLRLSCAASGITFVRNAKGWYRPAPGTERELVAAISSGGSTYYADSVKGRFTISRDNAKNTVYLQMNSLKPEDTAVYYCAVLSSWRFSGYDYWGQGTQVTVSS”, the “polyreactivity (PSR sort gate)” value is on record as “low polyreactivity”.

With “QVQLVESGGGLVQAGGSLRLSCDASGRTFIGYAMGWYRQAPGKERELVAAINWSGARTYYADSVKGRFTISRDNAKNTVYLQMNSLKPEDTAVYYCAAVPVTSQTKYGYWGQGTQVTVSS”, the “polyreactivity (PSR sort gate)” value was “high polyreactivity”.

Take “QVQLVESGGGLVPAGGSLRLSCAASGSIFGRNTMGWYRQAPGKERELVAAISSRGTSTYYADSVKGRFTISRDNAKNTVYLQMNSLKPEDTAVYYSAARVYPYNYWGQGTQVTVSS”: the “polyreactivity (PSR sort gate)” value was “high polyreactivity”.

In the case of “QVQHVESGGGLVQAGGSLRLTCAASGYIFYYNAMGWYRHAPGKEREMVAAINYSGTSTYYADSVKGRFTISRDNAKNTVYLQMNSLKPEDTAVFYCAKVPHYPLAGRLAILDYWGQGSQVTVSS”, the “polyreactivity (PSR sort gate)” value is “high polyreactivity”.

For “QVQLVESGGGLVQAGGSLRLSCASSGSTFPVYAMGWYRQPPGKDRELVAAITSGGSTYYADSVKGRFTISRDNEKNTVSLQMNIRKPEDTAVYYCNADGYLSYAFDYWGQGTQVTVSS”, the “polyreactivity (PSR sort gate)” value was “low polyreactivity”.

Take “QVQLVESGGGLVQAGGSLRLSCAASGLIFSNYAMGWYRQAPGKERELVAAITRTATTKYADSVKGRFTISRDNAKNTVYLQMNSLKPEDSAVYYCAARSYHDRYNSWTDRYGFWGQGTQVTVSS”: the “polyreactivity (PSR sort gate)” value was “high polyreactivity”.

As for “QVQLVESGGGLVQAGGSLRLSCAASGSIFAYYTMGWYRQAAGNERELVAVINASGGGTYYADSVKGRFTISRDNAKNTVYLQMNSLKPEDTAVYYCAATYSPFDFYYWGQGTQVTVSS”, the “polyreactivity (PSR sort gate)” value is on record as “low polyreactivity”.

Take “QVQLVESGGGLVQAGGTLSLSCAASGRTFVSYTMGWYRQAPGKERELVAAINYSVASTNYADSVKGRFTISRDNAKNSVYLQMNSLKPEDTAVYYCNRASAVWGQGTQVTVSS”: the “polyreactivity (PSR sort gate)” value is listed as “low polyreactivity”.

“QVQLVESGGGLVQAGGSLRLSCAASGFIFTPYTMGWYRQAPGKERELVAAITDGSSTYYADSVKGRFTISRDNAKNTVYLQMNSLKPEDTAVYYCAAVPRYQYGYWGQGTQVTVSS”: the “polyreactivity (PSR sort gate)” value is given as “low polyreactivity”.

Regarding “QVQLVESGGGLVQAGGSLRLSCAASGFTFRKYAMGWYRQAPGKERELVAAISSSGTSTYYADSVKGRFTISRDNAKNTVYLQMNSLKPEDTAVYYCAADRYYWGRYTLNYWGQGTQVTVSS”, the “polyreactivity (PSR sort gate)” value was “low polyreactivity”.

On to “QVQLVESGGGLVQAGGSLRLSCAASGRTFSSYAKGWYRQAPGKERELVAAITSGGSTYYADSVKGRFTISRDNAKNTVYLQMNSLKPDDTAVYYCAAEQHGYYWHSWNRYIFYYWGQGTQVTVSS”, for which the “polyreactivity (PSR sort gate)” value was “high polyreactivity”.

Take “QVQHVESGGGLVQAGGSLRLSCAASGFIFRSYAMGWFRQAPGKERELVAAISNGVITNYADSVKGRFTISRDNSKNTVYLQRNSLKPEDTAVYYCDADYNSQDDYWGQGTQVTVSS”: the “polyreactivity (PSR sort gate)” value is given as “low polyreactivity”.

For “QDHLVETGGGLVQAGGSLRLSCAASGRTLYINAMGWYRQAPGKERELVAAIRRGGSTYADSVKGRFTISRDNAKNTVYLQMNRLKPEDTAVYYCAADVPSGKYKGDYWGQGTQVTVSS”, the “polyreactivity (PSR sort gate)” value was “high polyreactivity”.
